Biological target: T1, Protein A (UniProt P38507 37-477)
T1 construct: Precipitation reagent; also called Protein A-Sepharose
Assay: Protein A-Sepharose precipitation, anti-kappa western blot
Method: In a different set of experiments the ability of the ligand Traps to multimerize in the presence of ligand was tested.

B1: gp130-CH1•IL-6Rα-κ (other)
chain 1: ELLDPCGYISPESPVVQLHSNFTAVCVLKEKCMDYFHVNANYIVWKTNHFTIPKEQYTIINRTASSVTFTDIASLNIQLTCNILTFGQLEQNVYGITIISGLPPEKPKNLSCIVNEGKKMRCEWDGGRETHLETNFTLKSEWATHKFADCKAKRDTPTSCTVDYSTVYFVNIEVWVEAENALGKVTSDHINFDPVYKVKPNPPHNLSVINSEELSSILKLTWTNPSIKSVIILKYNIQYRTKDASTWSQIPPEDTASTRSSFTVQDLKPFTEYVFRIRCMKEDGKGYWSDWSEEASGITYEDRPSKAPSFWYKIDPSHTQGYRTVQLVWKTLPPFEANGKILDYEVTLTRWKSHLQNYTVNATKLTVNLTNDRYLATLTVRNLVGKSDAAVLTIPACDFQATHPVMDLKAFPKDNMLWVEWTTPRESVKKYILEWCVLSDKAPCITDWQQEDGTVHRTYLRGNLAESKCYLITVTPVYADGPGSPESIKAYLKQAPPSKGPTVRTKKVGKNEAVLEWDQLPVDVQNGFIRNYTIFYRTIIGNETAVNVDSSHTEYTLSSLTSDTLYMVRMAAYTDEGGKDGPEFTFTTPKFAQGEIESGGQGTLVTVSSASTKGPSVFPLAPSSKSTSGGTAALGCLVKDYFPEPVTVSWNSGALTSGVHTFPAVLQSSGLYSLSSVVTVPSSSLGTQTYICNVNHKPSNTKVDKKVEPKSCDKTHT
chain 2: LAPRRCPAQEVARGVLTSLPGDSVTLTCPGVEPEDNATVHWVLRKPAAGSHPSRWAGMGRRLLLRSVQLHDSGNYSCYRAGRPAGTVHLLVDVPPEEPQLSCFRKSPLSNVVCEWGPRSTPSLTTKAVLLVRKFQNSPAEDFQEPCQYSQESQKFSCQLAVPEGDSSFYIVSMCVASSVGSKFSKTQTFQGCGILQPDPPANITVTAVARNPRWLSVTWQDPHSWNSSFYRLRFELRYRAERSKTFTTWMVKDLQHHCVIHDAWSGLRHVVQLRAQEEFGQGEWSEWSPEAMGTPWTESRSPPAENEVSTPMQALTTNKDDDNILFRDSANATSLPVQDAGTVAAPSVFIFPPSDEQLKSGTASVVCLLNNFYPREAKVQWKVDNALQSGNSQESVTEQDSKDSTYSLSSTLTLSKADYEKHKVYACEVTHQGLSSPVTKSFNRGEC
notes: the experiment prints gp130-CH1; also called G16K
B1: no binding.
